This note sets out measurements from patent publication US20220307010A1 (TWIST BIOSCIENCE, published 2022).

The labels stand for the following.
T1: TIGIT (T cell immunoreceptor with Ig and ITIM domains) (human, UniProt Q495A1 22-141, limits assumed)
T1 construct: also called hTIGIT; human TIGIT
T1 sequence (looked up): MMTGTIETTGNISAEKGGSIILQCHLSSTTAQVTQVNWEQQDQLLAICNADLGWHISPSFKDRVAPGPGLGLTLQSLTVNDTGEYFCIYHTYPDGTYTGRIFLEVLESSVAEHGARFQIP

T2: TIGIT (T cell immunoreceptor with Ig and ITIM domains) (human, UniProt Q495A1 22-141, limits assumed)
T2 construct: also called hTIGIT; human TIGIT
T2 sequence (looked up): T1 sequence (looked up)

B1: TIGIT-211-93 (antibody, V domains shown)
VH: EVQLLESGGGLVQPGGSLRLSCAASGFTFSRYFMGWVRQAPGKGLEWVSEISPSGKKKYYADSVKGRFTISRDNSKNTLYLQMNSLRAEDTAVYYCAKSSFDKYNFDYWGQGTLVTVSS
VL: DIQMTQSPSSLSASVGDRVTITCSASQDINKYLNWYQQKPGKAPKLLIYHTSRLQSGVPSRFSGSGSGTDFTLTISSLQPEDFATYYCQQFAYFPATFGQGTKVEIK
B2: TIGIT-211-15 (antibody, V domains shown)
VH: EVQLLESGGGLVQPGGSLRLSCAASGFTFSSAAMSWVRQAPGKGLEWVSGISPSGGITTYADSVKGRFTISRDNSKNTLYLQMNSLRAEDTAVYYCASLSRGYWGQGTLVTVSS
VL: DIQMTQSPSSLSASVGDRVTITCQSSQSVYSNNELSWYQQKPGKAPKLLIYGTSYRYSGVPSRFSGSGSGTDFTLTISSLQPEDFATYYCSSWAGSRSGTVFGQGTKVEIK
B3: TIGIT-211-95 (antibody, V domains shown)
VH: EVQLLESGGGLVQPGGSLRLSCAASGFTFPKYGMAWVRQAPGKGLEWVSTISSGGGYTYYPDSVKGRFTISRDNSKNTLYLQMNSLRAEDTAVYYCARDTYLHFDYWGQGTLVTVSS
VL: DIQMTQSPSSLSASVGDRVTITCRASQGVRTSLAWYQQKPGKAPKLLIYAKNNRPSGVPSRFSGSGSGTDFTLTISSLQPEDFATYYCQQSYSAPYTFGQGTKVEIK
B4: TIGIT-211-77 (antibody, V domains shown)
VH: EVQLLESGGGLVQPGGSLRLSCAASGFTFGNYAMAWVRQAPGKGLEWVSSIWPSGGQTWYADSVKGRFTISRDNSKNTLYLQMNSLRAEDTAVYYCAKGGTSFDYWGQGTLVTVSS
VL: DIQMTQSPSSLSASVGDRVTITCRASQSVRSYLNWYQQKPGKAPKLLIYAASSLYSGVPSRFSGSGSGTDFTLTISSLQPEDFATYYCQQYASVPVTFGQGTKVEIK
B5: TIGIT-211-13 (antibody, V domains shown)
VH: EVQLLESGGGLVQPGGSLRLSCAASGFTFNKYPMMWVRQAPGKGLEWVSYISSSGSSTYYADSVKGRFTISRDNSKNTLYLQMNSLRAEDTAVYYCARVIAAAGAFDYWGQGTLVTVSS
VL: DIQMTQSPSSLSASVGDRVTITCRASQSIREYLHWYQQKPGKAPKLLIYFGSELRKGVPSRFSGSGSGTDFTLTISSLQPEDFATYYCGQGVLWPATFGQGTKVEIK
B6: TIGIT-211-98 (antibody, V domains shown)
VH: EVQLLESGGGLVQPGGSLRLSCAASGFTFETYAMSWVRQAPGKGLEWVSVISGSGGRPNYADSVKGRFTISRDNSKNTLYLQMNSLRAEDTAVYYCAREGLWAFDYWGQGTLVTVSS
VL: DIQMTQSPSSLSASVGDRVTITCRASHFIGSLLSWYQQKPGKAPKLLIYETSKLASGVPSRFSGSGSGTDFTLTISSLQPEDFATYYCQQSYSYPRTFGQGTKVEIK
B7: TIGIT-211-116 (antibody, V domains shown)
VH: EVQLLESGGGLVQPGGSLRLSCAASGFTFSRYFMGWVRQAPGKGLEWVSAISGSGGNTYYADSVKGRFTISRDNSKNTLYLQMNSLRAEDTAVYYCARVWRNHLDYWGQGTLVTVSS
VL: DIQMTQSPSSLSASVGDRVTITCRASQTIERRLNWYQQKPGKAPKLLIYHDNKRPSGVPSRFSGSGSGTDFTLTISSLQPEDFATYYCQQGYTLPWTFGQGTKVEIK
B8: TIGIT-29-06 VHH-V5-His (VHH)
VHH: EVQLVESGGGLVQAGGSLRLSCAASGGTFRSYVMGWFRQAPGKEREWVATINSSGSRTYYADSVKGRFTISADNAKNTVYLQMNSLKPEDTAVYYCAARPNYRDYEYWGQGTQVTVSS
notes: not shown: V5-His tag
B9: TIGIT-30-49 VHH-V5-His (VHH)
VHH: EVQLVESGGGLVQAGGSLRLSCAASGNIFSRYIMGWFRQAPGKEREWVAGISNGGTTKYADSVKGRFTISADNAKNTVYLQMNSLKPEDTAVYYCAQGWKIVPTNWGQGTQVTVSS
notes: not shown: V5-His tag
B10: TIGIT-30-15 VHH-V5-His (VHH)
VHH: EVQLVESGGGLVQAGGSLRLSCAASGFTFSGNWMGWFRQAPGKEREWVSGISSGGGRTYYADSVKGRFTISADNAKNTVYLQMNSLKPEDTAVYYCAADVWYGSTWRNWGQGTQVTVSS
notes: not shown: V5-His tag
B11: TIGIT-30-43 VHH-V5-His (VHH)
VHH: EVQLVESGGGLVQAGGSLRLSCAASGFTFSTSWMGWFRQAPGKERELVAARNSGGNTNYADSVKGRFTISADNAKNTVYLQMNSLKPEDTAVYYCAADVWYGSTWRNWGQGTQVTVSS
notes: not shown: V5-His tag
B12: TIGIT-30-01 VHH-V5-His (VHH)
VHH: B11 VHH with T28A, T31S, S32Y
notes: not shown: V5-His tag
B13: TIGIT-30-40 VHH-V5-His (VHH)
VHH: B11 VHH with T31G, S32N, L47W, A49V, A50G, R51I, N52S, N56S, N58H
notes: not shown: V5-His tag
B14: TIGIT-29-18 VHH-V5-His (VHH)
VHH: EVQLVESGGGLVQAGGSLRLSCAASGSTFSNYAMGWFRQAPGKEREFVSAINSSGSRTYYADSVKGRFTISADNAKNTVYLQMNSLKPEDTAVYYCAARLWGTWTAGDYDYWGQGTQVTVSS
notes: not shown: V5-His tag
B15: TIGIT-29-34 VHH-V5-His (VHH)
VHH: B14 VHH with S27F, S30R, A50S, N52S, G55S, Y59S
notes: not shown: V5-His tag
B16: TIGIT-29-22 VHH-V5-His (VHH)
VHH: B14 VHH with T28I, F29L, N31S, A33T, A50T, N52S, S53R, G55S, S56T
notes: not shown: V5-His tag
B17: TIGIT-29-10 VHH-V5-His (VHH)
VHH: EVQLVESGGGLVQAGGSLRLSCAASGRTFSNYGMGWFRQAPGKEREFVSGISGSGGRTSYADSVKGRFTISADNAKNTVYLQMNSLKPEDTAVYYCAANLWYPVDRLNTGFNYWGQGTQVTVSS
notes: not shown: V5-His tag
B18: TIGIT-30-20 VHH-V5-His (VHH)
VHH: EVQLVESGGGLVQAGGSLRLSCAASGPTFSIYDMGWFRQAPGKEREFVAVINWSRGSTFYADSVKGRFTISADNAKNTVYLQMNSLKPEDTAVYYCAAGVWSSLRHTAANWGQGTQVTVSS
notes: not shown: V5-His tag
B19: TIGIT-30-52 VHH-V5-His (VHH)
VHH: EVQLVESGGGLVQAGGSLRLSCAASGRTFSNYFMGWFRQAPGKERESVATVTWRDNITYYADSVKGRFTISADNAKNTVYLQMNSLKPEDTAVYYCASAGRWGQGTQVTVSS
notes: not shown: V5-His tag
B20: TIGIT-30-30 VHH-V5-His (VHH)
VHH: EVQLVESGGGLVQAGGSLRLSCAASGGTFSGRGMGWFRQAPGKEREWVSSVYIFGGSTYYADSVKGRFTISADNAKNTVYLQMNSLKPEDTAVYYCANSNKPKFDWGQGTQVTVSS
notes: not shown: V5-His tag
B21: TIGIT-29-01 VHH-V5-His (VHH)
VHH: EVQLVESGGGLVQAGGSLRLSCAASGRTFSNYAMGWFRQAPGKEREFVAAITWSGTRTDYADSVKGRFTISADNAKNTVYLQMNSLKPEDTAVYYCAAAAWTIYEYDYWGQGTQVTVSS
notes: not shown: V5-His tag
B22: TIGIT-29-12 VHH-V5-His (VHH)
VHH: B21 VHH with R27S, N31S, D59N, E105T, Y108S
notes: not shown: V5-His tag
B23: TIGIT-29-33 VHH-V5-His (VHH)
VHH: B21 VHH with R27F, T28I, N31T, F47L, A49S, W53R, T56I, R57T, D59Y
notes: not shown: V5-His tag
B24: TIGIT-29-07 VHH-V5-His (VHH)
VHH: B21 VHH with R27S, T28I, A50T, T52S, W53R, S54G, D59N, E105A, D107N
notes: not shown: V5-His tag
B25: TIGIT-29-30 VHH-V5-His (VHH)
VHH: B21 VHH with R27F, N31S, T102R, I103Y, Y104S
notes: not shown: V5-His tag

Numbering of substitutions follows the chain as printed.

The target of one assay is T1, TIGIT (T cell immunoreceptor with Ig …). The experiment in a line: SPR kinetics. For orientation: In SPR one partner is held on a chip, and binding of the other changes the refractive index at the surface.
B1 gave a Kd of 1240 nM, a koff of 0.0281 s⁻¹ and a kon of 22700 M⁻¹ s⁻¹.
Molecule B2 registered a Kd of 301 nM, a koff of 0.00712 s⁻¹ and a kon of 23600 M⁻¹ s⁻¹.
With B3, the Kd was determined as 355 nM, the koff is 0.0756 s⁻¹ and the kon amounted to 213000 M⁻¹ s⁻¹.
For the molecule B4, the Kd was determined as 683 nM, the koff was 0.0417 s⁻¹ and the kon is 61000 M⁻¹ s⁻¹.
On the same counts, the results for B5 are 221 nM, 0.326 s⁻¹ and 1.48e+06 M⁻¹ s⁻¹.
For B6 the same measures were 574000 nM, 0.098 s⁻¹ and 171 M⁻¹ s⁻¹.
For B7, binding was put at a Kd of 269000 nM, the koff stood at 0.105 s⁻¹ and the kon was found to be 389 M⁻¹ s⁻¹.

The next assay shares this target. The experiment in a line: ELISA. A general note: In an ELISA, binding on a coated surface is turned into a signal by an enzyme label.
Regarding B2, the ELISA was determined as 11.3.
B5 yielded an ELISA of 15.

In a further assay the target is T2, TIGIT (T cell immunoreceptor with Ig …). The experiment in a line: SPR, VHH-V5-His.
B8 showed a Kd of 433000 nM and a koff of 0.02 s⁻¹.
Consider B9, for which the koff is 0.08 s⁻¹ and the kon came to 90000 M⁻¹ s⁻¹.
B10 yielded a koff of 0.004 s⁻¹ and a kon of 20000 M⁻¹ s⁻¹.
For B11, the koff worked out at 0.008 s⁻¹ and the kon came out at 70000 M⁻¹ s⁻¹.
B12 returned a koff of 0.08 s⁻¹ and a kon of 10000 M⁻¹ s⁻¹.
For B13 the same measures were 0.006 s⁻¹ and 30000 M⁻¹ s⁻¹.
Turning to B14, the koff came out at 0.007 s⁻¹ and the kon was 20000 M⁻¹ s⁻¹.
Molecule B15 showed an off-rate constant (koff) of 0.03 s⁻¹ and a kon of 30000 M⁻¹ s⁻¹.
In the case of B16, the koff amounted to 0.003 s⁻¹ and the kon worked out at 6000 M⁻¹ s⁻¹.
For the molecule B17, the koff came out at 0.003 s⁻¹ and the kon stood at 10000 M⁻¹ s⁻¹.
B18: the koff amounted to 0.002 s⁻¹ and the kon stood at 10000 M⁻¹ s⁻¹.
Molecule B19 had an equilibrium dissociation constant (Kd) of 4240 nM, a koff of 0.1 s⁻¹ and a kon of 30000 M⁻¹ s⁻¹.
On to B20, for which the Kd came to 387 nM, the koff was 0.006 s⁻¹ and the kon stood at 10000 M⁻¹ s⁻¹.
As for B21, the koff was determined as 0.01 s⁻¹ and the kon came out at 30000 M⁻¹ s⁻¹.
In turn, B22 returned a koff of 0.1 s⁻¹ and a kon of 10000 M⁻¹ s⁻¹.
For the molecule B23, binding was characterised by a dissociation constant (Kd) of 1520 nM, the koff was found to be 0.04 s⁻¹ and the kon came out at 20000 M⁻¹ s⁻¹.
For B24, the koff was determined as 0.004 s⁻¹ and the kon came to 8000 M⁻¹ s⁻¹.
Regarding B25, the koff amounted to 0.08 s⁻¹ and the kon is 300000 M⁻¹ s⁻¹.

The term Kd denotes the constant that tells how readily two partners part at equilibrium. As usually defined, the koff is a measure of how fast the partners let go of each other. A low value points to slow dissociation. Broadly, the kon is the rate constant with which the complex forms. The low end stands for slower complex formation, the high end for faster complex formation.
